Laboratory results reported in publication PMC12314576, “The Actin‐Binding Prolyl‐Isomerase Par17 Sustains Its Substrate Selectivity by Interdomain Allostery” (Proteins, 2025).
Starred links: 1 amine or outer side, 2 acyl side, 3 side chain; linkers in the order of their positions; H or OH if unused. *: point of attachment. pNA = O=[N+]([O-])c1ccc(N*)cc1; Suc = O=C(CCC(=O)[*:2])[*:1]

Biological target: Parvulin 17 (human) (UniProt Q9Y237)
Experiment: NMR titration; substrate peptides added stepwise to 15N-labelled parvulin (300 μM, up to 3 mM peptide, 1:10); BEST-TROSY-HSQC at 20°C, 50 mM KPi buffer pH 6.7; microscopic (residue-specific) KD fitted with a 1:1 binding model

Sequence of Parvulin 17 (human) (Q9Y237 other isoform, or with tags, fused parts or gaps): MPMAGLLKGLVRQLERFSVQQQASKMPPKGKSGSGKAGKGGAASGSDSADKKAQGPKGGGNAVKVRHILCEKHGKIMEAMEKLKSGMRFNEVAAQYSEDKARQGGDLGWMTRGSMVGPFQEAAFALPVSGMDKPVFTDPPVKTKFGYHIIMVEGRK

microscopic (residue-specific) KD, V116 [mM]	Binder
17	Suc-ARPF-pNA (SMILES C[C@H](NC(=O)CCC(=O)O)C(=O)N[C@@H](CCCNC(=N)N)C(=O)N1CCC[C@H]1C(=O)N[C@@H](Cc1ccccc1)C(=O)Nc1ccc([N+](=O)[O-])cc1) [Suc-Ala-Arg-Pro-Phe-pNA]
24	Suc-AKPF-pNA (SMILES C[C@H](NC(=O)CCC(=O)O)C(=O)N[C@@H](CCCCN)C(=O)N1CCC[C@H]1C(=O)N[C@@H](Cc1ccccc1)C(=O)Nc1ccc([N+](=O)[O-])cc1) [Suc-Ala-Lys-Pro-Phe-pNA]
